Like-named read-outs stand apart in the source and are kept apart here.
Assays:
Test in all cases: fluorescence anisotropy
[1] = target: htCREBD,4 (unphosphorylated) (UniProt P15337-1 1-341, C90A;V118D;C300S;C310S;C337S;del162-272)
[2] = target: T1, CREB bZip (Rattus norvegicus, UniProt P15337-1 270-341, C300S;C310S;C337S)
T1 sequence: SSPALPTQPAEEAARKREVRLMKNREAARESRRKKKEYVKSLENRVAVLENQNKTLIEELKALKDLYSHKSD

[3] = target: T1, CREB bZip; remark: listed apart in the source

B1: half-site CRE 14-mer (dsDNA)
DNA 1: ATCTGCGTCAGAGT
DNA 2: ACTCTGACGCAGAT
binding result [1]: binds | Kd [2]: ~38 nM | Kd [3]: ~32 nM

From article PMC6474821
